B1: CmeC-ECM-1C11 (VHH)
VHH: EVQLVESGGGLVQPGGSLRLSCAASGFTFSDQPMGWYRQAPGQGREWIAFISSGSGGTTDYKNSVKGRFTISRDNAKNIVYLQMNSLKPDDTARYYCNFRIDNNYWGQGTQVTVSS
B2: Flagella-ECF-1C4 (VHH)
VHH: EVQLVESGGGLVQAGGSLRVSCAASGRAVHNYALNWFRQAPGKAREFVSAISWTRRTYYANSVRGRFTISRDNNGNMVHLQMSNLKSEDTALYYCAAATTWPRLDGAEYWGQGTQVTVSS
B3: CadF-ECF-1D10 (VHH, not shown: small tags and cut ends)
VHH: EVQLVESGGGLVQPGGSLRLSCAASGFTLDDYAVGWFRQAPGKEREWLSGISSRDGSTVYADSVKGRFTISRDNAKNTYYLQMNSLKPEDTAVYYCAAAVGYILTRVKSHYNDWSQGTQVTVSS
B4: CadF-ECF-1F10 (VHH, not shown: small tags and cut ends)
VHH: EVQLVESGGGSVQAGGSLRLSCTASIRAGNRYAMGWFRQAPGKEREFVAGISWSGGNTYHADSVNGRFTISRDNAKNTLYLTMNSLKSEDTAVYYCAASWKPLTFRGDDYTYWGQGTQVTVSS
B5: CmeC-ECM-1D6 (VHH)
VHH: EVQLVESGGGLVQAGGSLRLSCAASGGTFSRYMMGWFRQAPGKEREFVASIARSGGTYFADSVKGRLTATRDDAKNTMHLQMNSLKPEDTAVYYCAAGAGGSYPALLDFEYLVWGQGTQVTVSS
B6: Flagella-ECF-1B6 (VHH)
VHH: EVQLVESGGGLVQSGGSLRLSCAASGRIFSITNMGWYRQAPGEQRELVADMPSGGSTNYADSVKGRFTISRDIAKNTVYLQMNSLKPEDTAVYYCNLKMSQPGWLVTNHNFWGQGTQVTVSS
B7: CjaD-ECD-1A7 (VHH, not shown: small tags and cut ends)
VHH: EVQLVESGGGLVQAGGSLRLSCATSGFTPGDYAIGWFRQAPGKAREGVSCLSTRDGTTYYADSVKGRFTISTDNAQNTVYLQMNSLKPEDTAVYYCAGEQISFRAVYYCTEYEPVYWSQGTQVTVSS
B8: Flagella-ECF-1G8 (VHH)
VHH: EVQLVESGGGLVEAGGSLTLSCTTSEPTSLLNLMGWWRQGPGKEREFVASSNWSGKLVDYADGVEGRFTVIRNEDENAISLQMNSLTVEDTAIYYCAASRLGLPRSAQANQYWGQGTQVTVSS
B9: Flagella-ECF-1F4 (VHH)
VHH: EVQLVESGGGLVQPGGSLRLSCEAAGSILRVNSMGWYRQAPGKQRDLVSIITSNNDAKYSDSVRGRFTISRDNAKNTVYLQMSSLKPDDTAVYYCNAYVETAGWIPTTHNLWGQGTQVTVSS
B10: CmeC-ECM-1G7 (VHH)
VHH: EVQLVESGGDLVQDGGSLRLSCAASGGDFRNPVTGWYRQAPGKQRELVGLITSDGRTNYGDSVMGRFTISMDTAKNTMYLQMNSLKPEDSAVYYCAASLLYGGLQFSTNIWGQGTQVTVSS
B11: CfrA-ECA-1G7 (VHH, not shown: small tags and cut ends)
VHH: EVQLVESGGGLVQPGGSLRLSCTASGSSLDYYAIGWFRQAPGKEREGVSCISSRDGRIYWADSVEGRFTISRDNGKNTVYLQMNSLKPEDTAVYYCATSRWSFCPSDWSPVPSPFGSWGQGTQVTVSS
B12: Flagella-ECF-1D9 (VHH)
VHH: EVQLVESGGGLVEPGGSLRLSCATSGFAFDNYCMYWVRQAPGKGLEWISGITNSGSFSYYADSVKGRFTISRDNAKNTLFLEMNSLTVDDTAVYYCAIHGHGCTWDSLRTTSGPRYRGQGTQVTVSS
B13: CjaD-ECD-1D3 (VHH, not shown: small tags and cut ends)
VHH: EVQLVESGGGLVQTGGSLRLSCATSGFTFEYSAIAWFRQAPGKGREGVSCISNRDGTTVYADSVKGRFTISSDNAKNTVYLQMNSLTPEDTGVYYCAADAGVYTADYCRDSRYDPVSKDAWGKGTLVTVSS

Tests used:
[1] = target: CmeC (Campylobacter jejuni); test: ELISA on directly coated CmeC (200 ng/well), serial dilution of purified VHH, anti-FLAG + anti-mouse-HRP, OPD, absorption at 490 nm
[2] = target: C. jejuni flagella (Campylobacter jejuni); test: apparent affinity estimated from ELISA dose response on immobilized Cj flagella
[3] = target: C. jejuni flagella (Campylobacter jejuni); test: ELISA dose response, purified VHH on immobilized Cj flagella, rabbit anti-VHH detection
[4] = target: CadF (Campylobacter jejuni); test: ELISA on directly coated CadF (200 ng/well), serial dilution of purified VHH, rabbit anti-VHH + anti-rabbit-HRP, OPD, absorption at 490 nm
[5] = target: CjaD (Campylobacter jejuni); test: ELISA on directly coated CjaD (200 ng/well), serial dilution of purified VHH, anti-FLAG + anti-mouse-HRP, OPD, absorption at 490 nm
[6] = target: CfrA (Campylobacter jejuni); test: ELISA on directly coated CfrA (200 ng/well), serial dilution of purified VHH, anti-FLAG + anti-mouse-HRP, OPD, absorption at 490 nm
[7] = target: CjaD (Campylobacter jejuni); test: apparent affinity from ELISA dose response, purified VHH on immobilized CjaD, anti-FLAG detection

| Binder | Kd [2] | Relative Bmax [3] | further results |
| --- | --- | --- | --- |
| B1 | – | – | EC50 (read off the curve) [1]: 400 pM |
| B2 | 4000 pM | 3 | – |
| B3 | – | – | EC50 (read off the curve) [4]: 700 pM |
| B4 | – | – | EC50 (read off the curve) [4]: 400 pM |
| B5 | – | – | EC50 (read off the curve) [1]: 700 pM |
| B6 | 5000 pM | 2.5 | – |
| B7 | – | – | EC50 (read off the curve) [5]: 2000 pM |
| B8 | 7000 pM | 2.5 | – |
| B9 | 600 pM | 2.5 | – |
| B10 | – | – | EC50 (read off the curve) [1]: 300 pM |
| B11 | – | – | EC50 (read off the curve) [6]: 9000 pM |
| B12 | 9000 pM | 3 | – |
| B13 | – | – | Kd [7]: 60 pM |

— patent US20250270298A1
